The text below walks through data of patent US20200024330A1.

Experiment in all cases: cell-based or functional assay
The target in experiment [1] is HIV-1 92UG005 envelope protein (Env) on pseudovirus (HIV-1).
Experiment [2] addresses HIV-1 93UG077 envelope glycoprotein (Env) on pseudovirus (HIV-1).
The target of experiment [3] is HIV-1 94UG103 envelope glycoprotein (Env) on pseudovirus (HIV-1).
The target of experiment [4] is HIV-1 APV-13 envelope protein (Env) on pseudovirus (HIV-1).
Experiment [5] addresses HIV-1 CMU02 envelope glycoprotein (Env) on pseudovirus (HIV-1).
The target of experiment [6] is HIV-1 Env of isolate MGRM-AE-002 (HIV-1).
Experiment [7] deals with HIV-1 Env of isolate MGRM-D-003 (clade D) (HIV-1).
Experiment [8] concerns the target HIV-1 Env of isolate MGRM-G-011 (clade G pseudovirus) (HIV-1).
The target in experiment [9] is HIV-1 Env of isolate MGRM-G-013 (clade G pseudovirus) (HIV-1).
For experiment [10], the target named is HIV-1 Env of pseudovirus 93TH305, clade B (HIV-1).
Experiment [11] deals with HIV-1 Env of pseudovirus CAAN.A2 (Acute), clade B (HIV-1).
Experiment [12] addresses HIV-1 Env of pseudovirus MGRM-Chronic-B-003, clade B (HIV-1).
Experiment [13] deals with HIV-1 Env of pseudovirus THR0.18 (Acute), clade B (HIV-1).
For experiment [14], the target named is HIV-1 IAVI-C3 envelope protein (Env) on pseudovirus (HIV-1).
The target of experiment [15] is HIV-1 MGRM-A-007 envelope glycoprotein (Env) (HIV-1).
Experiment [16] addresses HIV-1 MGRM-A-009 envelope glycoprotein (Env) (HIV-1).
Experiment [17] deals with HIV-1 MGRM-C-022 Env (HIV-1).

Chain of 1443_C16 (PG16) (TCN-116) (antibody) (VH): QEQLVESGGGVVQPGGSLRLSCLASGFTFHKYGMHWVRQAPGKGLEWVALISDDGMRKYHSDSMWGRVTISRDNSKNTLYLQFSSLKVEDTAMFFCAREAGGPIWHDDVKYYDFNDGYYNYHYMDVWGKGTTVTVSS
Chain of 1443_C16 (PG16) (TCN-116) (antibody) (VL): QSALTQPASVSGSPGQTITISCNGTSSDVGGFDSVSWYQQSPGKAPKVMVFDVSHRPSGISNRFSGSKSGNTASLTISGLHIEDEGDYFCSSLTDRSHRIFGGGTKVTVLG

As a reminder, the IC50 is the point on the concentration scale where inhibition reaches its midpoint. Low values mean greater potency, high ones weaker potency. 2F5 (antibody): the neutralization IC50 in [1] was 11.8 µg/mL; in [4], 2.8 µg/mL; in experiment [14], more than 50 µg/mL. For the same substance, the IC90 (pseudovirus neutralization) in experiment [2] was 33.4 µg/mL; in experiment [3], 46.6 µg/mL; in [5], 12.2 µg/mL. The IC50 (µg/ml), pseudovirus neutralization in [6] was 0.31 µg/mL; in [7], more than 50 µg/mL; in [8] it was 1.16 µg/mL; in experiment [9], 0.59 µg/mL; in experiment [10] it was 7.61 µg/mL; in [11] it was 23.1 µg/mL. The IC50 (µg/ml), pseudovirus neutralization in experiment [12] was 1 µg/mL; in [13], more than 50 µg/mL; in experiment [15] it was 16.3 µg/mL; in experiment [16], 9.4 µg/mL. Besides, in experiment [17], the IC50 was more than 50 µg/mL.

2G12 (antibody): the neutralization IC50 in [1] is more than 50 µg/mL; in experiment [4], 23.9 µg/mL; in experiment [14], more than 50 µg/mL. In addition, the IC90 (pseudovirus neutralization) in experiment [2], in experiment [3] and in experiment [5] was more than 50 µg/mL throughout. Moreover, the IC50 (µg/ml), pseudovirus neutralization in experiment [6] was more than 50 µg/mL; in experiment [7], more than 50 µg/mL; in experiment [8], more than 50 µg/mL; in experiment [9], more than 50 µg/mL; in [10], 0.55 µg/mL; in experiment [11], more than 50 µg/mL. The IC50 (µg/ml), pseudovirus neutralization in [12] was 0.06 µg/mL; in [13], more than 50 µg/mL; in experiment [15], more than 50 µg/mL; in [16], 7.47 µg/mL. The substance further displayed an IC50 in experiment [17] of more than 50 µg/mL.

Turning to 4E10 (antibody), the neutralization IC50 in experiment [1] stood at 8.86 µg/mL; in experiment [4] it was 3.8 µg/mL; in experiment [14], 5 µg/mL. Besides, the IC90 (pseudovirus neutralization) was more than 50 µg/mL in experiment [2], more than 50 µg/mL in [3] and 13.4 µg/mL in [5]. Moreover, the IC50 (µg/ml), pseudovirus neutralization in experiment [6] came to 0.55 µg/mL; in [7] it was 2.49 µg/mL; in experiment [8], 1.44 µg/mL; in experiment [9] it was 1.15 µg/mL; in experiment [10], 12.3 µg/mL; in experiment [11], 17.9 µg/mL. The IC50 (µg/ml), pseudovirus neutralization in experiment [12] turned out to be 3.5 µg/mL; in experiment [13], 4.68 µg/mL; in [15], 1.82 µg/mL; in experiment [16], 12 µg/mL. The substance further registered an IC50 in [17] of 5.71 µg/mL.

Consider 1443_C16 (PG16) (TCN-116) (antibody), for which the neutralization IC50 in experiment [1] was more than 50 µg/mL; in [4], more than 50 µg/mL; in experiment [14], 14.8 µg/mL. The results for the IC90 (pseudovirus neutralization) in experiment [2], in [3] and in [5] were more than 50 µg/mL, 1.59 µg/mL and more than 50 µg/mL, respectively. The IC50 (µg/ml), pseudovirus neutralization in experiment [6] was 0.01 µg/mL; in experiment [7] it was 0.01 µg/mL; in experiment [8] it was 0.04 µg/mL; in experiment [9], more than 50 µg/mL; in experiment [10] it was 19.3 µg/mL; in experiment [11] it was 8.83 µg/mL. Also, the IC50 (µg/ml), pseudovirus neutralization in [12] turned out to be 0.19 µg/mL; in experiment [13], 1.34 µg/mL; in experiment [15] it was 5.91 µg/mL; in experiment [16], 0.01 µg/mL. In [17], this substance came in with an IC50 of 0.25 µg/mL.
